# Measurements: patent publication US20220162261A1 (published 2022)
# Bridge positions count the residues as written; N and C are the ends. Square brackets hold non-standard residues; d marks the D form. Ends that are not written are not given here. Phe(3,4-Cl2) = N[C@@H](Cc1ccc(Cl)c(Cl)c1)C(=O)O; Phe(4-CF3) = N[C@@H](Cc1ccc(C(F)(F)F)cc1)C(=O)O; Phe(4-tBu) = CC(C)(C)c1ccc(C[C@H](N)C(=O)O)cc1; Phe(2,4-Cl2) = N[C@@H](Cc1ccc(Cl)cc1Cl)C(=O)O; NMeR = CN[C@@H](CCCNC(=N)N)C(=O)O; hPhe = N[C@@H](CCc1ccccc1)C(=O)O; Tic = O=C(O)[C@@H]1Cc2ccccc2CN1; β3hE = N[C@@H](CCC(=O)O)CC(=O)O; Pen = CC(C)(S)[C@H](N)C(=O)O; βAla = NCCC(=O)O
# Target: T1, human α4β7 integrin on cells (human, UniProt P13612 34-1032; P26010 20-798)
# T1 construct: whole, on cells; also called α4β7 cell (Hu); RPMI8866 cells
# Test: RPMI8866 cell adhesion to MAdCAM-1
row,IC50 [nM],Binder
1,> 10000,Ac-[Pen][NMeR]SQIQ[Pen][Phe(4-tBu)][β3hE][dK]-NH2 (disulfide 1-7; also: homodimer via DIG linker on D-Lys10 side chains) [SEQ ID NO: 189]
2,> 100000,Ac-[Pen][NMeR]SQIQ[Pen][Phe(4-tBu)][β3hE][dK]-NH2 (disulfide 1-7; also: homodimer via IDA linker on D-Lys10 side chains) [SEQ ID NO: 190]
3,> 10000,"Ac-[Pen][NMeR]SQIQ[Pen][Phe(4-tBu)][β3hE][dK]-NH2 (disulfide 1-7; also: homodimer via IDA linker on D-Lys10 side chains, Alexa-647 label) [SEQ ID NO: 192]"

# Continued, binder first:
row,Binder,IC50 [nM]
1,"Ac-[Pen][NMeR]SDTL[Pen][hPhe]E[dK]-NH2 (disulfide 1-7; not fully specified (residue 10); printed as (Ac Pen N-Me-R S D T L Pen HPhe E k NH2)2 DIG, disulfide Pen-Pen; also: dimer, two subunits joined by DIG linker) [SEQ ID NO: 45]",> 25
2,"Ac-[Pen][NMeR]SDTL[Pen][Phe(4-CF3)][dE][dK]-NH2 (disulfide 1-7; not fully specified (residue 10); printed as (Ac Pen N-Me-R S D T L Pen F(4-CF3) e k NH2)2 DIG, disulfide Pen-Pen; also: dimer, two subunits joined by DIG linker) [SEQ ID NO: 3]",> 25
3,"C[NMeR]SDTL[Pen]W-NH2 (disulfide 1-7; not fully specified (N-terminus); printed as PEG25 NH2 C N-Me-R S D T L Pen W NH2, disulfide C-Pen; also: N-terminal PEG25 linker, number of subunits not shown, N-terminal linker printed without dimer brackets) [SEQ ID NO: 21]",> 50
4,"Ac-C[NMeR]SDTL[Pen]W[dK]-NH2 (disulfide 1-7; not fully specified (residue 9); printed as (Ac C N-Me-R S D T L Pen W k NH2)2 PEG25, disulfide C-Pen; also: dimer, two subunits joined by PEG25 linker) [SEQ ID NO: 37]",> 100
5,"Ac-C[NMeR]SDTL[Pen]W[dK]-NH2 (disulfide 1-7; not fully specified (residue 9); printed as (Ac C N-Me-R S D T L Pen W k NH2)2 PEG13, disulfide C-Pen; also: dimer, two subunits joined by PEG13 linker) [SEQ ID NO: 36]",> 50

# Target: T2, rh integrin α4β7 (R&D Systems #5397-A30) (human, UniProt P13612 34-970; P26010 20-723)
# T2 construct: bought; coated on a nickel coated plate; also called immobilized α4β7; immobilized α4β7 integrin protein
# Test: competition ELISA vs MAdCAM-1
row,IC50 [nM],Binder
1,≤ 10,"Ac-[Pen][NMeR]SDTL[Pen][Phe(4-tBu)]E[dK]-NH2 (disulfide 1-7; not fully specified (residue 10); printed as (Ac Pen N-Me-R S D T L Pen F(4tBu) E k NH2)2 DIG, disulfide Pen-Pen; also: homodimer, two subunits joined by DIG linker) [SEQ ID NO: 131]"
2,> 10,H-[βAla][Pen][NMeR]SDTL[Pen]W[dE]-NH2 (disulfide 2-8; SMILES CC(C)C[C@@H]1NC(=O)[C@H]([C@@H](C)O)NC(=O)[C@H](CC(=O)O)NC(=O)[C@H](CO)NC(=O)[C@H](CCCNC(=N)N)N(C)C(=O)[C@@H](NC(=O)CCN)C(C)(C)SSC(C)(C)[C@@H](C(=O)N[C@@H](Cc2c[nH]c3ccccc23)C(=O)N[C@H](CCC(=O)O)C(N)=O)NC1=O) [SEQ ID NO: 53]
3,> 25,Ac-[Pen][NMeR]SDTLC[Tic][dE][dK]-NH2 (disulfide 1-7; SMILES CC(=O)N[C@@H]1C(=O)N(C)[C@@H](CCCNC(=N)N)C(=O)N[C@@H](CO)C(=O)N[C@@H](CC(=O)O)C(=O)N[C@@H]([C@@H](C)O)C(=O)N[C@@H](CC(C)C)C(=O)N[C@H](C(=O)N2Cc3ccccc3C[C@H]2C(=O)N[C@H](CCC(=O)O)C(=O)N[C@H](CCCCN)C(N)=O)CSSC1(C)C) [SEQ ID NO: 89]
4,≤ 10,"Ac-[Pen][NMeR]SDTL[Pen][Phe(4-tBu)][β3hE][dK]-NH2 (disulfide 1-7; not fully specified (residue 10); printed as (Ac Pen N-Me-R S D T L Pen F(4-tBu) b-H-E k NH2)2 IDA Alexa-488, disulfide Pen-Pen; also: homodimer: two subunits joined by IDA linker, Alexa-488 label on the linker) [SEQ ID NO: 182]"
5,≤ 10,"Ac-[Pen][NMeR]SDTL[Pen][Phe(4-tBu)][β3hE][dK]-NH2 (disulfide 1-7; not fully specified (residue 10); printed as (Ac Pen N-Me-R S D T L Pen F(4-Bu) b-H-E k NH2)2 IDA Alexa-647, disulfide Pen-Pen; also: homodimer: two subunits joined by IDA linker, Alexa-647 label on the linker, F(4-Bu) as printed) [SEQ ID NO: 183]"

# More lines, now with the values behind:
row,Binder,IC50 [nM]
1,Ac-[Pen][NMeR]SDTL[Pen]WEP[dK]-NH2 (disulfide 1-7; SMILES CC(=O)N[C@@H]1C(=O)N(C)[C@@H](CCCNC(=N)N)C(=O)N[C@@H](CO)C(=O)N[C@@H](CC(=O)O)C(=O)N[C@@H]([C@@H](C)O)C(=O)N[C@@H](CC(C)C)C(=O)N[C@H](C(=O)N[C@@H](Cc2c[nH]c3ccccc23)C(=O)N[C@@H](CCC(=O)O)C(=O)N2CCC[C@H]2C(=O)N[C@H](CCCCN)C(N)=O)C(C)(C)SSC1(C)C) [SEQ ID NO: 49],> 10
2,"Ac-[Pen][NMeR]SDTL[Pen][hPhe][dE][dK]-NH2 (disulfide 1-7; not fully specified (residue 10); printed as (Ac Pen N-Me-R S D T L Pen HPhe e k NH2)2 DIG, disulfide Pen-Pen; also: dimer, two subunits joined by DIG linker) [SEQ ID NO: 40]",≤ 10
3,Ac-[Pen][NMeR]SDTL[Pen][hPhe][dE][dK]-NH2 (disulfide 1-7; SMILES CC(=O)N[C@@H]1C(=O)N(C)[C@@H](CCCNC(=N)N)C(=O)N[C@@H](CO)C(=O)N[C@@H](CC(=O)O)C(=O)N[C@@H]([C@@H](C)O)C(=O)N[C@@H](CC(C)C)C(=O)N[C@H](C(=O)N[C@@H](CCc2ccccc2)C(=O)N[C@H](CCC(=O)O)C(=O)N[C@H](CCCCN)C(N)=O)C(C)(C)SSC1(C)C) [SEQ ID NO: 14],> 25
4,Ac-[Pen][NMeR][dD]DTL[Pen]WE[dK]-NH2 (disulfide 1-7; SMILES CC(=O)N[C@@H]1C(=O)N(C)[C@@H](CCCNC(=N)N)C(=O)N[C@H](CC(=O)O)C(=O)N[C@@H](CC(=O)O)C(=O)N[C@@H]([C@@H](C)O)C(=O)N[C@@H](CC(C)C)C(=O)N[C@H](C(=O)N[C@@H](Cc2c[nH]c3ccccc23)C(=O)N[C@@H](CCC(=O)O)C(=O)N[C@H](CCCCN)C(N)=O)C(C)(C)SSC1(C)C) [SEQ ID NO: 48],> 1000
5,Ac-[Pen][NMeR]SDDL[Pen]WE[dK]-NH2 (disulfide 1-7; SMILES CC(=O)N[C@@H]1C(=O)N(C)[C@@H](CCCNC(=N)N)C(=O)N[C@@H](CO)C(=O)N[C@@H](CC(=O)O)C(=O)N[C@@H](CC(=O)O)C(=O)N[C@@H](CC(C)C)C(=O)N[C@H](C(=O)N[C@@H](Cc2c[nH]c3ccccc23)C(=O)N[C@@H](CCC(=O)O)C(=O)N[C@H](CCCCN)C(N)=O)C(C)(C)SSC1(C)C) [SEQ ID NO: 46],> 1000
6,"Ac-[Pen][NMeR]SDTL[Pen][Phe(3,4-Cl2)]E[dK]-NH2 (disulfide 1-7; SMILES CC(=O)N[C@@H]1C(=O)N(C)[C@@H](CCCNC(=N)N)C(=O)N[C@@H](CO)C(=O)N[C@@H](CC(=O)O)C(=O)N[C@@H]([C@@H](C)O)C(=O)N[C@@H](CC(C)C)C(=O)N[C@H](C(=O)N[C@@H](Cc2ccc(Cl)c(Cl)c2)C(=O)N[C@@H](CCC(=O)O)C(=O)N[C@H](CCCCN)C(N)=O)C(C)(C)SSC1(C)C) [SEQ ID NO: 17]",> 10
7,Ac-[Pen][NMeR]SDTL[Pen][hPhe]E[dK]-NH2 (disulfide 1-7; SMILES CC(=O)N[C@@H]1C(=O)N(C)[C@@H](CCCNC(=N)N)C(=O)N[C@@H](CO)C(=O)N[C@@H](CC(=O)O)C(=O)N[C@@H]([C@@H](C)O)C(=O)N[C@@H](CC(C)C)C(=O)N[C@H](C(=O)N[C@@H](CCc2ccccc2)C(=O)N[C@@H](CCC(=O)O)C(=O)N[C@H](CCCCN)C(N)=O)C(C)(C)SSC1(C)C) [SEQ ID NO: 19],> 10
8,"Ac-[Pen][NMeR]SDTL[Pen][Phe(2,4-Cl2)]E[dK]-NH2 (disulfide 1-7; SMILES CC(=O)N[C@@H]1C(=O)N(C)[C@@H](CCCNC(=N)N)C(=O)N[C@@H](CO)C(=O)N[C@@H](CC(=O)O)C(=O)N[C@@H]([C@@H](C)O)C(=O)N[C@@H](CC(C)C)C(=O)N[C@H](C(=O)N[C@@H](Cc2ccc(Cl)cc2Cl)C(=O)N[C@@H](CCC(=O)O)C(=O)N[C@H](CCCCN)C(N)=O)C(C)(C)SSC1(C)C) [SEQ ID NO: 16]",> 10
